# Measurements as given in patent US20090117551.
# Columns and labels:
# [1] = tested on: GFP-caspase-3 recognition peptide inserted modified protein
# [2] = tested on: GFP-trypsin recognition peptide inserted modified protein
Substance,"FRET between quantum dot and GFP after protease treatment (30 C, 120 minutes) [1]",peak wavelength of fluorescence intensity [1],"FRET between quantum dot and GFP after protease treatment (37 C, 120 minutes) [2]","FRET waveform pattern, simultaneous DNase/trypsin assay (QD565 with GFP of FIG. 5A) [2]",peak wavelength of fluorescence intensity [2]
Caspase-3 (Medical & Biological Laboratories),the disappearance of FRET was observed,shifted from 510 nm (untreated with trypsin) to 506 nm (treated with trypsin),–,–,–
Trypsin,–,–,the disappearance of FRET was observed,it was observed that the peak around 510 nm shifted,shifted from 513 nm (untreated with trypsin) to 508 nm (treated with trypsin)
